Laboratory results reported in publication PMC10397247.
Where two headings read alike, the source gives them in different places.

Columns and labels:
O16 = biological target: T1, O16; assay: two-hybrid library CCNG1;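 further: natural log of median RNA to DNA barcode read ratio; higher means stronger binding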
T1 chain: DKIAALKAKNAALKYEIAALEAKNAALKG

O2 = biological target: T2, O2; assay: two-hybrid library CCNG1;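 further: natural log of median RNA to DNA barcode read ratio; higher means stronger binding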
T2 chain: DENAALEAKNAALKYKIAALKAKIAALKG

O3 = biological target: T3, O3; assay: two-hybrid library CCNG1;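 further: natural log of median RNA to DNA barcode read ratio; higher means stronger binding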
T3 chain: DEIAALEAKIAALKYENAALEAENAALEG

O4 = biological target: T4, O4; assay: two-hybrid library CCNG1;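 further: natural log of median RNA to DNA barcode read ratio; higher means stronger binding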
T4 chain: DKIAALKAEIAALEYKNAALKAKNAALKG

O5 = biological target: T5, O5; assay: two-hybrid library CCNG1
T5 chain: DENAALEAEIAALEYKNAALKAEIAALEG

O6 = biological target: T6, O6; assay: two-hybrid library CCNG1
T6 chain: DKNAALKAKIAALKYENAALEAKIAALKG

O7 = biological target: T7, O7; assay: two-hybrid library CCNG1
T7 chain: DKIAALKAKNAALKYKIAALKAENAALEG

O8 = biological target: T8, O8; assay: two-hybrid library CCNG1
T8 chain: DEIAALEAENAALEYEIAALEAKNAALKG

O9 = biological target: T9, O9; assay: two-hybrid library CCNG1
T9 chain: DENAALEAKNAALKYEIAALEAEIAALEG

O15-bP = biological target: T10, O15-bP; assay: two-hybrid library CCNG1
T10 chain: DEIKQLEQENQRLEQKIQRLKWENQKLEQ

O16-bP = biological target: T11, O16-bP; assay: two-hybrid library CCNG1
T11 chain: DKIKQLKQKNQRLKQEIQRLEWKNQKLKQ

O2-bP = biological target: T12, O2-bP; assay: two-hybrid library CCNG1
T12 chain: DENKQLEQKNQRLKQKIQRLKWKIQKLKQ

O3-bP = biological target: T13, O3-bP; assay: two-hybrid library CCNG1
T13 chain: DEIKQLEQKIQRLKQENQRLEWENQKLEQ

O4-bP = biological target: T14, O4-bP; assay: two-hybrid library CCNG1
T14 chain: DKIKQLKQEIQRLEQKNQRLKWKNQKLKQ

O5-bP = biological target: T15, O5-bP; assay: two-hybrid library CCNG1
T15 chain: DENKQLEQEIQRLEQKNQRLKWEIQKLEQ

O6-bP = biological target: T16, O6-bP; assay: two-hybrid library CCNG1
T16 chain: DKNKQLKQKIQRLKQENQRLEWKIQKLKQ

O7-bP = biological target: T17, O7-bP; assay: two-hybrid library CCNG1
T17 chain: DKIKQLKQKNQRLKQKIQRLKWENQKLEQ

O8-bP = biological target: T18, O8-bP; assay: two-hybrid library CCNG1
T18 chain: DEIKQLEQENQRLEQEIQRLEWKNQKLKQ

O9-bP = biological target: T19, O9-bP; assay: two-hybrid library CCNG1
T19 chain: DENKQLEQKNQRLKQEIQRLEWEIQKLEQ

O15 = biological target: T20, O15; assay: two-hybrid library CCNG1
T20 chain: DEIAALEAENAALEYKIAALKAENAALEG

4H_BCR = biological target: T21, 4H_BCR; assay: two-hybrid library CCmax
T21 chain: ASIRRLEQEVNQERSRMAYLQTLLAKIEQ

4H_GCN4 = assay: two-hybrid library CCmax; conditions: mean of both orientations
Chain of 4H_GCN4 (chain, as listed by the source): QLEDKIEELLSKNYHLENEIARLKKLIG

AP1-AA = biological target: T22, AP1-AA; assay: two-hybrid library CCmax
T22 chain: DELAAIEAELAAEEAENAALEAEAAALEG

AP2-AA = biological target: T23, AP2-AA; assay: two-hybrid library CCmax
T23 chain: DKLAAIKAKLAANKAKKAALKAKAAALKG

AP3-AA = biological target: T24, AP3-AA; assay: two-hybrid library CCmax
T24 chain: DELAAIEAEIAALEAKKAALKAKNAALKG

AP4-AA = biological target: T25, AP4-AA; assay: two-hybrid library CCmax
T25 chain: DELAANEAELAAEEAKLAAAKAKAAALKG

AP5-AA = biological target: T26, AP5-AA; assay: two-hybrid library CCmax
T26 chain: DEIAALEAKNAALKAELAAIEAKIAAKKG

AP6-AA = biological target: T27, AP6-AA; assay: two-hybrid library CCmax
T27 chain: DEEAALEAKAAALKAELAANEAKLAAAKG

AP7-AA = biological target: T28, AP7-AA; assay: two-hybrid library CCmax
T28 chain: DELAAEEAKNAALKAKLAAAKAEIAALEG

AP8-AA = biological target: T29, AP8-AA; assay: two-hybrid library CCmax
T29 chain: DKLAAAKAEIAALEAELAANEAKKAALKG

GCN2_T = assay: two-hybrid library CCmax
O11-AA = biological target: T30, O11-AA; assay: two-hybrid library CCmax; conditions: mean of both orientations
T30 chain: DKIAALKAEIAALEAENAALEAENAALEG

O13-AA = biological target: T31, O13-AA; assay: two-hybrid library CCmax; conditions: mean of both orientations
T31 chain: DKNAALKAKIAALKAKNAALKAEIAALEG

O14-AA = biological target: T32, O14-AA; assay: two-hybrid library CCmax; conditions: mean of both orientations
T32 chain: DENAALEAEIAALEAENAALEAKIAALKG

P1-AA = biological target: T33, P1-AA; assay: two-hybrid library CCmax
T33 chain: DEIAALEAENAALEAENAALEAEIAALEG

P10-AA = biological target: T34, P10-AA; assay: two-hybrid library CCmax
T34 chain: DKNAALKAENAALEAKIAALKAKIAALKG

P11-AA = biological target: T35, P11-AA; assay: two-hybrid library CCmax
T35 chain: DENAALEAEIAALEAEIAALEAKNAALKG

P12-AA = biological target: T36, P12-AA; assay: two-hybrid library CCmax
T36 chain: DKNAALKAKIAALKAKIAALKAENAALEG

P2-AA = biological target: T37, P2-AA; assay: two-hybrid library CCmax
T37 chain: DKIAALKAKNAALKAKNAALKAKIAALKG

P3-AA = biological target: T38, P3-AA; assay: two-hybrid library CCmax
T38 chain: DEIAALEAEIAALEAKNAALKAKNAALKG

P4-AA = biological target: T39, P4-AA; assay: two-hybrid library CCmax
T39 chain: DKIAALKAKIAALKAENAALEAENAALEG

P7-AA = biological target: T40, P7-AA; assay: two-hybrid library CCmax
T40 chain: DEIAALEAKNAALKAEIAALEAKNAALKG

P8-AA = biological target: T41, P8-AA; assay: two-hybrid library CCmax
T41 chain: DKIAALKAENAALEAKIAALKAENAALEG

P9-AA = biological target: T42, P9-AA; assay: two-hybrid library CCmax
T42 chain: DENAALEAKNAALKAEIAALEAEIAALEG

zCON9_A = biological target: T43, zCON9_A; assay: two-hybrid library CCmax
T43 chain: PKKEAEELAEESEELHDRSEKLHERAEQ

zCON9_B = biological target: T44, zCON9_B; assay: two-hybrid library CCmax; conditions: mean of both orientations
T44 chain: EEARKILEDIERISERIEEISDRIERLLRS

zCON9_D = biological target: T45, zCON9_D; assay: two-hybrid library CCmax; conditions: mean of both orientations
T45 chain: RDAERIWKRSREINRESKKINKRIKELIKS

## DKIAALKAKNAALKYEIAALEAKNAALKG [O16]
O16
  interaction score: -2.69
O2
  interaction score: -2.29
O3
  interaction score: -1.85
O4
  interaction score: -1.89
O5
  interaction score: -1.91
O6
  interaction score: -1.46
O7
  interaction score: -1.81
O8
  interaction score: -0.596
O9
  interaction score: -2.26

## DEIKQLEQENQRLEQKIQRLKWENQKLEQ [O15-bP]
O15-bP
  interaction score: -0.0595
O16-bP
  interaction score: 1.51
O2-bP
  interaction score: -1.39
O3-bP
  interaction score: -0.872
O4-bP
  interaction score: -1.2
O5-bP
  interaction score: -0.178
O6-bP
  interaction score: -0.729
O7-bP
  interaction score: -0.235
O8-bP
  interaction score: -0.223
O9-bP
  interaction score: -1.06

## DEIAALEAENAALEYKIAALKAENAALEG [O15]
O15
  interaction score: -1.57
O16
  interaction score: 1.41
O2
  interaction score: -2.21
O3
  interaction score: -2.17
O4
  interaction score: -1.8
O5
  interaction score: -1.45
O6
  interaction score: -2.48
O7
  interaction score: -0.707
O8
  interaction score: -1.73
O9
  interaction score: -2.28

## ASIRRLEQEVNQERSRMAYLQTLLAKIEQ [4H_BCR]
4H_BCR
  interaction score: -1.84
4H_GCN4
  interaction score: -1.7
AP1-AA; mean of both orientations
  interaction score: -1.92
AP2-AA; mean of both orientations
  interaction score: -2.54
AP3-AA; mean of both orientations
  interaction score: -1.8
AP4-AA; mean of both orientations
  interaction score: -1.51
AP5-AA; mean of both orientations
  interaction score: -1.5
AP6-AA; mean of both orientations
  interaction score: -1.75
AP7-AA; mean of both orientations
  interaction score: -1.69
AP8-AA; mean of both orientations
  interaction score: -1.28
GCN2_T
  interaction score: -2.01
O11-AA
  interaction score: -1.66
O13-AA
  interaction score: -1.72
O14-AA
  interaction score: -0.776
P1-AA; mean of both orientations
  interaction score: -1.71
P10-AA; mean of both orientations
  interaction score: -1.67
P11-AA; mean of both orientations
  interaction score: -1.68
P12-AA; mean of both orientations
  interaction score: -1.94
P2-AA; mean of both orientations
  interaction score: -2.08
P3-AA; mean of both orientations
  interaction score: -2.12
P4-AA; mean of both orientations
  interaction score: -1.94
P7-AA; mean of both orientations
  interaction score: -1.28
P8-AA; mean of both orientations
  interaction score: -1.85
P9-AA; mean of both orientations
  interaction score: -1.88
zCON9_A
  interaction score: -2.12
zCON9_B
  interaction score: -0.916
zCON9_D
  interaction score: -1.5

## KRLKQIEKRLQAKEWEKAQLRKELQALRK [4H_APH4]
4H_BCR
  interaction score: -1.95
AP1-AA; mean of both orientations
  interaction score: -1.81
AP2-AA
  interaction score: -2.2
AP3-AA
  interaction score: -1.44
AP4-AA; mean of both orientations
  interaction score: -1.78
AP5-AA
  interaction score: -1.61
AP6-AA
  interaction score: -2.8
AP7-AA
  interaction score: -2.06
AP8-AA
  interaction score: -1.39
P1-AA
  interaction score: -2.2
P10-AA
  interaction score: -1.38
P11-AA
  interaction score: -1.36
P12-AA
  interaction score: -2.07
P2-AA
  interaction score: -1.88
P3-AA
  interaction score: -1.05
P4-AA
  interaction score: -2.31
P7-AA
  interaction score: -1.7
P8-AA
  interaction score: -2.2
P9-AA
  interaction score: -1.79

## KRAKQLRKRLQALEWQLAQIRKELQAAEK [4H_APH3]
4H_BCR
  interaction score: -1.42
AP1-AA
  interaction score: -1.7
AP2-AA
  interaction score: -1.83
AP4-AA
  interaction score: -1.76
AP5-AA
  interaction score: -0.968
AP6-AA
  interaction score: -2.3
AP7-AA
  interaction score: -1.94
AP8-AA
  interaction score: -0.758
P1-AA
  interaction score: -1.41
P10-AA
  interaction score: -0.731
P11-AA
  interaction score: 0.988
P12-AA
  interaction score: -1.53
P2-AA
  interaction score: -1.85
P3-AA
  interaction score: -1.01
P4-AA
  interaction score: -2.3
P7-AA
  interaction score: -1.07
P8-AA
  interaction score: -1.41
P9-AA
  interaction score: -0.77

## DKIKQLKQKNQRLKQEIQRLEWKNQKLKQ [O16-bP]
O16-bP
  interaction score: -0.576
O2-bP
  interaction score: -1.5
O3-bP
  interaction score: -1.06
O4-bP
  interaction score: -1.21
O5-bP
  interaction score: -0.672
O6-bP
  interaction score: 0.641
O7-bP
  interaction score: -1.1
O8-bP
  interaction score: 1.44
O9-bP
  interaction score: -1.13

## DELAAIEAELAAEEAENAALEAEAAALEG [AP1-AA]
AP1-AA
  interaction score: -1.8
AP2-AA; mean of both orientations
  interaction score: -1.59
AP3-AA; mean of both orientations
  interaction score: -1.43
AP4-AA; mean of both orientations
  interaction score: -1.14
AP5-AA; mean of both orientations
  interaction score: -1.52
AP6-AA; mean of both orientations
  interaction score: -2.13
AP7-AA; mean of both orientations
  interaction score: -1.41
AP8-AA; mean of both orientations
  interaction score: -1.34
GCN2_T
  interaction score: -2.11
P1-AA; mean of both orientations
  interaction score: -1.54
P10-AA; mean of both orientations
  interaction score: -1.61
P11-AA; mean of both orientations
  interaction score: -1.38
P12-AA; mean of both orientations
  interaction score: -1.66
P2-AA; mean of both orientations
  interaction score: 0.117
P3-AA
  interaction score: -1.19
P4-AA; mean of both orientations
  interaction score: -1.4
P7-AA; mean of both orientations
  interaction score: -1.65
P8-AA; mean of both orientations
  interaction score: -1.49
P9-AA; mean of both orientations
  interaction score: -1.77

## KRLKQLRKRKQAKRWEEAQIEKELQAIEK [4H_APH2]
4H_BCR
  interaction score: -1.77
AP1-AA
  interaction score: -1.22
AP2-AA
  interaction score: -2.23
AP3-AA
  interaction score: -1.71
AP4-AA
  interaction score: -1.35
AP5-AA
  interaction score: -1.71
AP6-AA
  interaction score: -1.16
AP7-AA
  interaction score: -1.91
AP8-AA
  interaction score: -1.53
P1-AA
  interaction score: -1.37
P10-AA
  interaction score: -1.63
P11-AA
  interaction score: -1.87
P12-AA
  interaction score: -1.31
P4-AA
  interaction score: -1.76
P7-AA
  interaction score: -1.59
P8-AA
  interaction score: -1.79
P9-AA
  interaction score: -1.85
